Laboratory results taken from PMC5384650.

Substrate: NC[C@H](N)C(=O)O
Assay: coupled NADH oxidation assay
Assay type: biochemical, Salmonella enterica
Conditions: ATP, Mg2+ used in place of beta-alanine

B1: pantothenate synthetase (PanC) (Salmonella enterica subsp. enterica serovar Typhimurium str. LT2) (protein)
chain: MLIIETLPLLRQHIRRLRQEGKRVALVPTMGNLHDGHMKLVDEAKARADVVIVSIFVNPMQFDRPDDLVRYPRTLQEDCEKLNKRKVDYVFAPAVEEIYPHGLEGQTYVDVPGLSTMLEGASRPGHFRGVSTIVSKLFNLIQPDIACFGEKDFQQLALIRKMVADMSYDIEIVGVPIIRAKDGLALSSRNAYLTAEQRKIAPGLYNVMNSIAEKLIAGNRELQEIIAIAEQELNEKGFRADDIQIRDADTLLELTETSKRAVILAAAWLGQARLIDNQSVTLAQ
Q: B1 was tested. Which Km did it give?
A: 8.1 mM
